Reference: US20240181022A1, “AMURINS LYSINS, AND LYSIN-ANTIMICROBIAL PEPTIDE (AMP) CONSTRUCTS ACTIVE AGAINST GRAM-NEGATIVE BACTERIA” (priority 2021, published 2024)
Values joined by “and” are separate entries in the source; they are usually repeats but may differ in a detail not shown here. Equal values may be shown once. Read-outs that look alike come from different tables or passages of the source.

Columns and labels:
[1] = system: P. aeruginosa; test: Checkerboard synergy assay (FICI) with antibiotics against P. aeruginosa; type: cell-based, Pseudomonas aeruginosa; parameters: key to average FICI score with amikacin: FICI: ≤0.5 synergy, >0.5–≤1 additive, >1 indifferent; details: for MIC (dual agent): GN370 + meropenem
How it was run: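 Checkerboard of 2-fold antibiotic dilutions crossed with GN370 (lysin peptide), bacteria at 1×10^5 CFU/ml in CAA, with or without human serum or pulmonary surfactant. ΣFICmin taken as FICI: ≤0.5 synergy, >0.5–≤1 additive, >1 indifferent.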

[2] = system: A. xylosoxidans; type: cell-based, Achromobacter xylosoxidans
Experimental: MIC values were determined using a modification of the standard broth microdilution reference method defined by the Clinical and Laboratory Standards Institute (CLSI), CLSL. 2015. Methods for Dilution Antimicrobial Susceptibility Tests for Bacteria That Grow Aerobically; Approved Standard-10th Edition. Clinical and Laboratory Standards Institute, Wayne, PA. The modification was based on the replacement of Mueller Hinton Broth with either CAA media (with and without NaCl) or CAA supplemented with 2.5% human serum. MIC is the minimum concentration of peptide sufficient to suppress at least 80% of the bacterial growth compared to control.
The MICs for were determined as described below using the broth microdilution method for meropenem, GN370, AM1, AM2, and AM3. The results are shown below in Tables 8-12.
The activity of GN370 and AM1 was evaluated against various bacterial isolates, including mucoid and α-hemolytic isolates of P. aeruginosa, MDR isolates, and carbapenem-resistant isolates.

[3] = system: B. cenocepacia; test: Checkerboard synergy assay with meropenem against B. cenocepacia; type: cell-based, Burkholderia cenocepacia; details: for MIC (dual agent): GN370 + meropenem; for FICmin / FICmin interpretation: GN370 with meropenem
Source text: In some embodiments, the Chp peptides disclosed herein or active fragments thereof reduce the minimum inhibitory concentration (MIC) of an antibiotic in the presence and/or absence of human serum, pulmonary surfactant, and/or sputum, including human sputum and human sputum from a cystic fibrosis patient. Any known method to assess MIC may be used. In some embodiments, a checkerboard assay is used to determine the effect of a Chp peptide or active fragment thereof on antibiotic concentration. The checkerboard assay is based on a modification of the CLSI method for MIC determination by broth microdilution (See Clinical and Laboratory Standards Institute (CLSI), CLSI. 2015. Methods for Dilution Antimicrobial Susceptibility Tests for Bacteria That Grow Aerobically; Approved Standard-10th Edition. Clinical and Laboratory Standards Institute, Wayne, PA, which is herein incorporated by reference in its entirety and Ceri et al. 1999. J. Clin. Microbiol. 37: 1771-1776, which is also herein incorporated by reference in its entirety).
Checkerboards are constructed by first preparing columns of e.g., a 96-well polypropylene microtiter plate, wherein each well has the same amount of antibiotic diluted 2-fold along the horizontal axis. […] The Chp peptide or active fragment thereof and antibiotic dilutions are then combined, so that each column has a constant amount of antibiotic and doubling dilutions of Chp peptide, while each row has a constant amount of Chp peptide and doubling dilutions of antibiotic. Each well thus has a unique combination of Chp peptide and antibiotic. Bacteria are added to the drug combinations at concentrations of 1×10^5 GFU/ml in CAA, for example, with or without human serum or pulmonary surfactant. […] Summation fractional inhibitory concentrations (ΣFICs) are calculated for each drug and the minimum ΣFIC value (ΣFICmin) is used to determine the effect of the Chp peptide/antibiotic combination.
The synergy of GN370 with meropenem was evaluated against 3 different strains of P. aeruginosa and three different strains of B. cenocepacia.

[4] = system: S. maltophilia; test: Time-kill assay in cystic fibrosis patient sputum, S. maltophilia; type: cell-based, Stenotrophomonas maltophilia
Source text: Sputum from 5 cystic fibrosis patients was pooled. The resulting mixture was not filtered, as it was very dense and not amenable to sterilization by filtration. Sputum is known to be a complex mixture of DNA, carbohydrates, and lipids ([…], 2016). As used herein, the term “sputum” refers to the mucus present in the respiratory tract of an animal, such as a human. Sputum may increase in thickness due to the irritation or infection, including bacterial infection, and in some instances, may be expelled by the animal while coughing. In certain instances, cystic fibrosis may be characterized by the presence of a thick, sticky mucus or sputum present in the lungs of cystic fibrosis patients. The activity of GN370, AM1, AM2, AM3, and meropenem was determined in the sputum using a time-kill assay format as disclosed in Zhang et al., Antimicrobial peptide therapeutics for cystic fibrosis, Antimicrobial Agents Chemother. 2005; 49(7):2921-2927. […] Untreated controls were included in addition to pretreatment plating (t=0) for a baseline CFU determination. Activity was also determined in the absence of sputum for comparison to activity observed in the presence of sputum.

[5] = P. aeruginosa (ATCC 27853, CFS 1766)
[6] = P. aeruginosa (ATCC 27853, CFS 1766), GN370 with meropenem
[7] = P. aeruginosa (CFS 2045), GN370 with meropenem
[8] = P. aeruginosa (CFS 2061), GN370 with meropenem
[9] = P. aeruginosa strain AR-769, GN370 with Amikacin
[10] = P. aeruginosa strain AR-769, GN370 with Cefepime
[11] = P. aeruginosa strain AR-769, GN370 with Ceftazidime
[12] = P. aeruginosa strain AR-769, GN370 with Ciprofloxacin
[13] = P. aeruginosa strain AR-769, GN370 with Colistin
[14] = P. aeruginosa strain AR-769, GN370 with Meropenem
[15] = P. aeruginosa strain AR-769, GN370 with Tobramycin
[16] = P. aeruginosa strain AR-769, in combination with Amikacin
[17] = P. aeruginosa strain AR-769, in combination with Cefepime
[18] = P. aeruginosa strain AR-769, in combination with Ceftazidime
[19] = P. aeruginosa strain AR-769, in combination with Ciprofloxacin
[20] = P. aeruginosa strain AR-769, in combination with Meropenem
[21] = P. aeruginosa strain AR-769, in combination with Tobramycin
[22] = Achromobacter xylosoxidans, N 11 (Table 26)

B1: GN370: lysin-AMP construct, SEQ ID NO: 149: MIDR, FIRL and NPTH moieties N-terminal to GN202 lysin (protein)
chain: MIDRFIRLNPTHGPRRPRRPGRRAPVRTSQRGIDLIKSFEGLRLSAYQDSVGVWTIGYGTTRGVTRYMTITVEQAERMLSNDIQRFEPELDRLAKVPLNQNQWDALMSFVYNLGAANLASSTLLDLLNKGDYQGAADQFPHWVNAGGKRLDGLVKRRAAERALFLEPLS
modifications: GN370 lysin
- GN370 FIC [1]: 0.125
- synergy with meropenem ([1]; 3 strains of P. aeruginosa): synergizes with meropenem against P. aeruginosa
- MIC (alone) [1, 5]: 1 µg/mL
- MIC (dual agent) [1, 5]: 0.06 µg/mL
- FICmin [1, 6]: 0.091
- FICmin interpretation [1, 6]: (Synergy)
- MIC (alone) ([1]; P. aeruginosa (CFS 2045)): 2 µg/mL
- MIC (dual agent) ([1]; P. aeruginosa (CFS 2045)): 0.06 µg/mL
- FICmin [1, 7]: 0.155
- FICmin interpretation [1, 7]: (Synergy)
- MIC (alone) ([1]; P. aeruginosa (CFS 2061)): 4 µg/mL
- MIC (dual agent) ([1]; P. aeruginosa (CFS 2061)): 0.25 µg/mL
- FICmin [1, 8]: 0.125
- FICmin interpretation [1, 8]: (Synergy)
- GN370 MIC (single agent) ([1]; P. aeruginosa strain AR-769): 2 µg/mL
- FICave [1, 9]: 0.323
- FICmin [1, 9]: 0.281
- FICave [1, 10]: 0.542 and 0.419
- FICmin [1, 10]: 0.5 and 0.375
- FICave [1, 11]: 1.073
- FICmin [1, 11]: 1.031
- FICave [1, 12]: 0.543 and 0.417
- FICmin [1, 12]: 0.5 and 0.375
- FICave [1, 13]: 0.292
- FICmin [1, 13]: 0.25
- FICave [1, 14]: 0.422 and 0.419
- FICmin [1, 14]: 0.375
- FICave [1, 15]: 0.418
- FICmin [1, 15]: 0.375
- average FICI score with amikacin ([1]; P. aeruginosa strain AR-769, checkerboard): 0.323
- GN370 FIC [1, 16]: 0.031
- GN370 MIC (combo) [1, 16]: 0.063 µg/mL
- GN370 FIC [1, 17]: 0.25
- GN370 MIC (combo) [1, 17]: 0.5 µg/mL
- GN370 FIC [1, 18]: 0.031
- GN370 MIC (combo) [1, 18]: 0.063 µg/mL
- GN370 FIC [1, 19]: 0.25
- GN370 MIC (combo) [1, 19]: 0.5 µg/mL
- GN370 MIC (combo) ([1]; P. aeruginosa strain AR-769, in combination with Colistin): 0.25 µg/mL
- GN370 FIC [1, 20]: 0.25
- GN370 MIC (combo) [1, 20]: 0.5 µg/mL
- GN370 FIC [1, 21]: 0.25
- GN370 MIC (combo) [1, 21]: 0.5 µg/mL
- MIC50 ([2]; A. xylosoxidans isolates): 8 µg/mL
- MIC90 ([2]; A. xylosoxidans isolates): > 32 µg/mL
- MIC ([2]; A. xylosoxidans test organism of the sputum time-kill assay): GN370 (MIC = 0.25)
- MIC50 [2, 22]: >64 µg/mL
- MIC90 [2, 22]: >64 µg/mL
- MIC (alone) ([3]; B. cenocepacia (CFS 2135)): 128 µg/mL
- MIC (dual agent) ([3]; B. cenocepacia (CFS 2135)): 64 µg/mL
- FICmin ([3]; B. cenocepacia (CFS 2135)): 1.5
- FICmin interpretation ([3]; B. cenocepacia (CFS 2135)): (Indifferent)
- MIC (alone) ([3]; B. cenocepacia (CFS 2138)): 256 µg/mL
- MIC (dual agent) ([3]; B. cenocepacia (CFS 2138)): 128 µg/mL
- FICmin ([3]; B. cenocepacia (CFS 2138)): 1.5
- FICmin interpretation ([3]; B. cenocepacia (CFS 2138)): (Indifferent)
- MIC (alone) ([3]; B. cenocepacia (CFS 2142)): 256 µg/mL
- MIC (dual agent) ([3]; B. cenocepacia (CFS 2142)): 128 µg/mL
- FICmin ([3]; B. cenocepacia (CFS 2142)): 1
- FICmin interpretation ([3]; B. cenocepacia (CFS 2142)): (Additive)
- synergy with meropenem ([3]; three strains of B. cenocepacia): not against B. cenocepacia
- effect of sputum on antibacterial activity ([4]; 10% CF sputum vs no sputum): none of GN370, AM1, AM2, and AM3 was inhibited
- Log10 CFU/mL of sputum ([4]; absence of sputum, 1 hr): 2.3 Log10 CFU/mL of sputum
- Log10 CFU/mL of sputum ([4]; absence of sputum, 3 hr): 2.3 Log10 CFU/mL of sputum
- Log10 CFU/mL of sputum ([4]; absence of sputum, 24 hr): 2.3 Log10 CFU/mL of sputum
- Log10 CFU/mL of sputum ([4]; presence of 10% sputum, 1 hr): 3.48 Log10 CFU/mL of sputum
- Log10 CFU/mL of sputum ([4]; presence of 10% sputum, 3 hr): 2.3 Log10 CFU/mL of sputum
- Log10 CFU/mL of sputum ([4]; presence of 10% sputum, 24 hr): 2.3 Log10 CFU/mL of sputum
- CFU reduction by 3 hours ([4]; time-kill): ~2 log10
- killing by 24 hours ([4]; time-kill): complete killing
